Results as given in patent US20210388087A1 (Chugai, published 2021).
Numbering of substitutions follows the chain as printed. Names and notes keep the numbering of the source. Values belong to the binder of their own block, whether it stands above or below them.

Experiments:
Human CD137 ECD = target: T1, Human CD137 ECD (human); assay: Biacore SPR, vs parent H183/L072
T1 construct: entry includes C-terminal His-tag and biotin acceptor peptide; also called human CD137 extracellular domain; 4-1BB

Human CD3eg linker = target: T2, Human CD3eg linker (human); assay: Biacore SPR, vs template H183/L072
T2 construct: Single chain: epsilon and gamma subunits of human CD3 joined by a 29-mer linker, Flag-tag at the C-terminus; also called recombinant human CD3
T2 chain: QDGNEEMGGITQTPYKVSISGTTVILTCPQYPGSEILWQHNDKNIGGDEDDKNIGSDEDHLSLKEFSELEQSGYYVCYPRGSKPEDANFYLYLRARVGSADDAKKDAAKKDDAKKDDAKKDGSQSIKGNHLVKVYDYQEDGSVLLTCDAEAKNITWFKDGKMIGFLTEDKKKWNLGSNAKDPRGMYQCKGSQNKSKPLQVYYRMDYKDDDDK

T1 sequence (chain, as listed by the source limits assumed): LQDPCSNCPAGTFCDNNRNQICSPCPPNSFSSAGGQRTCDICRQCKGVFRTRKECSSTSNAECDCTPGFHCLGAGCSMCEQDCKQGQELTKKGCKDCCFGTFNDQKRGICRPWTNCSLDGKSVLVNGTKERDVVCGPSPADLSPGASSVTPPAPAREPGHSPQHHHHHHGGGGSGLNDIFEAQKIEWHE

B1: H183/L072 VL S26A (antibody, name in Kabat numbering, V domains shown)
VH: QVQLVESGGGLVQPGRSLRLSCAASGFTFSNAWMHWVRQAPGKGLEWVAQIKDKGNAYAAYYAPSVKGRFTISRDDSKNSIYLQMNSLKTEDTAVYYCHYVHYASASTVLPAFGVDAWGQGTTVTVSS
VL: DIVMTQSPLSLPVTPGEPASISCQAAQELVHMNRNTYLHWYQQKPGQAPRLLIYKVSNRFPGVPDRFSGSGSGTDFTLKISRVEAEDVGVYYCAQGTSVPFTFGQGTKLEIK
notes: Dual-Ig
fold change of affinity (Human CD137 ECD): 0.8 fold

B2: H183/L072 VH Y59W (antibody, name in Kabat numbering, V domains shown)
VH: B1 VH with Y62W
VL: B1 VL with A26S
fold change of affinity (Human CD3eg linker): 0.6 fold

B5: H183/L072 VL A25Q (antibody, name in Kabat numbering, V domains shown)
VH: B1 VH
VL: B1 VL with A25Q, A26S
notes: Dual-Ig
fold change of affinity (Human CD137 ECD): 0.1 fold

B6: H183/L072 VL A89F (antibody, name in Kabat numbering, V domains shown)
VH: B1 VH
VL: B1 VL with A26S, A94F
notes: Dual-Ig
fold change of affinity (Human CD137 ECD): 0 fold

B7: H183/L072 VH Y97A (antibody, name in Kabat numbering, V domains shown)
VH: B1 VH with Y103A
VL: B1 VL with A26S
fold change of affinity (Human CD3eg linker): 0 fold

B8: H183/L072 VL A89V (antibody, name in Kabat numbering, V domains shown)
VH: B1 VH
VL: B1 VL with A26S, A94V
notes: Dual-Ig
fold change of affinity (Human CD137 ECD): 0 fold

B9: H183/L072 VL A89H (antibody, name in Kabat numbering, V domains shown)
VH: B1 VH
VL: B1 VL with A26S, A94H
notes: Dual-Ig
fold change of affinity (Human CD137 ECD): 0 fold

B10: H183/L072 VL A89K (antibody, name in Kabat numbering, V domains shown)
VH: B1 VH
VL: B1 VL with A26S, A94K
notes: Dual-Ig
fold change of affinity (Human CD137 ECD): 0 fold

B12: H183/L072 VL A25M (antibody, name in Kabat numbering, V domains shown)
VH: B1 VH
VL: B1 VL with A25M, A26S
notes: Dual-Ig
fold change of affinity (Human CD137 ECD): 0.1 fold

B16: H183/L072 VH Y59P (antibody, name in Kabat numbering, V domains shown)
VH: B1 VH with Y62P
VL: B1 VL with A26S
fold change of affinity (Human CD3eg linker): 0.7 fold

B18: H183/L072 VH Y94M (antibody, name in Kabat numbering, V domains shown)
VH: B1 VH with Y100M
VL: B1 VL with A26S
fold change of affinity (Human CD3eg linker): 0 fold

B19: H183/L072 VH Y97I (antibody, name in Kabat numbering, V domains shown)
VH: B1 VH with Y103I
VL: B1 VL with A26S
fold change of affinity (Human CD3eg linker): 0 fold

B23: H183/L072 VL A25N (antibody, name in Kabat numbering, V domains shown)
VH: B1 VH
VL: B1 VL with A25N, A26S
notes: Dual-Ig
fold change of affinity (Human CD137 ECD): 0.2 fold

B24: H183/L072 VH Y97L (antibody, name in Kabat numbering, V domains shown)
VH: B1 VH with Y103L
VL: B1 VL with A26S
fold change of affinity (Human CD3eg linker): 0 fold

B30: H183/L072 VL A25G (antibody, name in Kabat numbering, V domains shown)
VH: B1 VH
VL: B1 VL with A25G, A26S
notes: Dual-Ig
fold change of affinity (Human CD137 ECD): 0.7 fold

B31: H183/L072 VH Y97P (antibody, name in Kabat numbering, V domains shown)
VH: B1 VH with Y103P
VL: B1 VL with A26S
fold change of affinity (Human CD3eg linker): 0 fold

B34: H183/L072 VH Y97M (antibody, name in Kabat numbering, V domains shown)
VH: B1 VH with Y103M
VL: B1 VL with A26S
fold change of affinity (Human CD3eg linker): 0 fold

B37: H183/L072 VH Y59Q (antibody, name in Kabat numbering, V domains shown)
VH: B1 VH with Y62Q
VL: B1 VL with A26S
fold change of affinity (Human CD3eg linker): 1.1 fold

B40: H183/L072 VL A89I (antibody, name in Kabat numbering, V domains shown)
VH: B1 VH
VL: B1 VL with A26S, A94I
notes: Dual-Ig
fold change of affinity (Human CD137 ECD): 0 fold

B41: H183/L072 VH Y94P (antibody, name in Kabat numbering, V domains shown)
VH: B1 VH with Y100P
VL: B1 VL with A26S
fold change of affinity (Human CD3eg linker): 0 fold

B44: H183/L072 VH Y59V (antibody, name in Kabat numbering, V domains shown)
VH: B1 VH with Y62V
VL: B1 VL with A26S
fold change of affinity (Human CD3eg linker): 1.2 fold

Other lines, results leading:

fold change of affinity (Human CD3eg linker): 0.4 fold
B3: H183/L072 VH Y94A (antibody, name in Kabat numbering, V domains shown)
VH: B1 VH with Y100A
VL: B1 VL with A26S

fold change of affinity (Human CD3eg linker): 1.2 fold
B4: H183/L072 VH Y59T (antibody, name in Kabat numbering, V domains shown)
VH: B1 VH with Y62T
VL: B1 VL with A26S

fold change of affinity (Human CD137 ECD): 1.1 fold
B11: H183/L072 VL A25S (antibody, name in Kabat numbering, V domains shown)
VH: B1 VH
VL: B1 VL with A25S, A26S
notes: Dual-Ig

fold change of affinity (Human CD137 ECD): 0.2 fold
B13: H183/L072 VL A25I (antibody, name in Kabat numbering, V domains shown)
VH: B1 VH
VL: B1 VL with A25I, A26S
notes: Dual-Ig

fold change of affinity (Human CD3eg linker): 0 fold
B14: H183/L072 VH Y94I (antibody, name in Kabat numbering, V domains shown)
VH: B1 VH with Y100I
VL: B1 VL with A26S

fold change of affinity (Human CD137 ECD): 0 fold
B15: H183/L072 VL A89P (antibody, name in Kabat numbering, V domains shown)
VH: B1 VH
VL: B1 VL with A26S, A94P
notes: Dual-Ig

fold change of affinity (Human CD137 ECD): 0 fold
B17: H183/L072 VL A89D (antibody, name in Kabat numbering, V domains shown)
VH: B1 VH
VL: B1 VL with A26S, A94D
notes: Dual-Ig

fold change of affinity (Human CD3eg linker): 1.1 fold
B20: H183/L072 VH Y59S (antibody, name in Kabat numbering, V domains shown)
VH: B1 VH with Y62S
VL: B1 VL with A26S

fold change of affinity (Human CD137 ECD): 0.5 fold
B21: H183/L072 VL A89G (antibody, name in Kabat numbering, V domains shown)
VH: B1 VH
VL: B1 VL with A26S, A94G
notes: Dual-Ig

fold change of affinity (Human CD137 ECD): 0 fold
B22: H183/L072 VL A89N (antibody, name in Kabat numbering, V domains shown)
VH: B1 VH
VL: B1 VL with A26S, A94N
notes: Dual-Ig

fold change of affinity (Human CD137 ECD): 0 fold
B25: H183/L072 VL A89E (antibody, name in Kabat numbering, V domains shown)
VH: B1 VH
VL: B1 VL with A26S, A94E
notes: Dual-Ig

fold change of affinity (Human CD137 ECD): 0 fold
B26: H183/L072 VL A89R (antibody, name in Kabat numbering, V domains shown)
VH: B1 VH
VL: B1 VL with A26S, A94R
notes: Dual-Ig

fold change of affinity (Human CD137 ECD): 0 fold
B27: H183/L072 VL A89L (antibody, name in Kabat numbering, V domains shown)
VH: B1 VH
VL: B1 VL with A26S, A94L
notes: Dual-Ig

fold change of affinity (Human CD137 ECD): 0 fold
B28: H183/L072 VL A89Q (antibody, name in Kabat numbering, V domains shown)
VH: B1 VH
VL: B1 VL with A26S, A94Q
notes: Dual-Ig

fold change of affinity (Human CD137 ECD): 0 fold
B29: H183/L072 VL A89S (antibody, name in Kabat numbering, V domains shown)
VH: B1 VH
VL: B1 VL with A26S, A94S
notes: Dual-Ig

fold change of affinity (Human CD137 ECD): 0.7 fold
B32: H183/L072 VL A25T (antibody, name in Kabat numbering, V domains shown)
VH: B1 VH
VL: B1 VL with A25T, A26S
notes: Dual-Ig

fold change of affinity (Human CD137 ECD): 0.5 fold
B33: H183/L072 VL A25V (antibody, name in Kabat numbering, V domains shown)
VH: B1 VH
VL: B1 VL with A25V, A26S
notes: Dual-Ig

fold change of affinity (Human CD137 ECD): 0.1 fold
B35: H183/L072 VL A25L (antibody, name in Kabat numbering, V domains shown)
VH: B1 VH
VL: B1 VL with A25L, A26S
notes: Dual-Ig

fold change of affinity (Human CD3eg linker): 0.8 fold
B36: H183/L072 VH Y94L (antibody, name in Kabat numbering, V domains shown)
VH: B1 VH with Y100L
VL: B1 VL with A26S

fold change of affinity (Human CD137 ECD): 0 fold
B38: H183/L072 VL A89M (antibody, name in Kabat numbering, V domains shown)
VH: B1 VH
VL: B1 VL with A26S, A94M
notes: Dual-Ig

fold change of affinity (Human CD137 ECD): 1.4 fold
B39: H183/L072 VL A25P (antibody, name in Kabat numbering, V domains shown)
VH: B1 VH
VL: B1 VL with A25P, A26S
notes: Dual-Ig

fold change of affinity (Human CD137 ECD): 0 fold
B42: H183/L072 VL A89T (antibody, name in Kabat numbering, V domains shown)
VH: B1 VH
VL: B1 VL with A26S, A94T
notes: Dual-Ig

fold change of affinity (Human CD3eg linker): 1.3 fold
B43: H183/L072 VH Y59R (antibody, name in Kabat numbering, V domains shown)
VH: B1 VH with Y62R
VL: B1 VL with A26S
